The results in this text go back to patent US20190233495A1 (Sanofi, published 2019).

Non-standard residues stand in square brackets, D forms with d. 1Nal = N[C@@H](Cc1cccc2ccccc12)C(=O)O; Nle = CCCC[C@H](N)C(=O)O; Aib = CC(C)(N)C(=O)O

Sequences and labels used below:
T1: RXFP1 receptor (UniProt Q9HBX9 1-757, limits assumed)
T1 sequence (looked up): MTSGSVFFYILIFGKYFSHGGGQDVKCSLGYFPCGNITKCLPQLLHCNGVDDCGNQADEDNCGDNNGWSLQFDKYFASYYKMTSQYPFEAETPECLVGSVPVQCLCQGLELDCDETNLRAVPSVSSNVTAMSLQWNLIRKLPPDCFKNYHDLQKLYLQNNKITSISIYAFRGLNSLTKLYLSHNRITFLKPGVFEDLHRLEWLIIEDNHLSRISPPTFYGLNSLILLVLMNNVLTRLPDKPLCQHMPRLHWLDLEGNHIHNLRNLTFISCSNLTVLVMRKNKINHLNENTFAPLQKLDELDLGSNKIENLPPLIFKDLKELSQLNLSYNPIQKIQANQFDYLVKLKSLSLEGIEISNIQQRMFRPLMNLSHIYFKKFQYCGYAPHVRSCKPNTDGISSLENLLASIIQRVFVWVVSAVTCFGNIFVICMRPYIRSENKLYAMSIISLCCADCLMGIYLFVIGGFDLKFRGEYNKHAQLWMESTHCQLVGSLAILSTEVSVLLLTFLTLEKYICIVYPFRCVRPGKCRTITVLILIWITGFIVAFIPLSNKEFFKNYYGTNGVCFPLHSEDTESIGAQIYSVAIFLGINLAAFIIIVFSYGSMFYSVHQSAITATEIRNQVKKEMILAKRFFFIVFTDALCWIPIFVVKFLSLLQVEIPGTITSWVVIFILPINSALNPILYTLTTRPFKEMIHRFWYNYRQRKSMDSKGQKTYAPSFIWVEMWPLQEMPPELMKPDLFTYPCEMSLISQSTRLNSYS

B1: SEQ ID NO: 44 (peptide)
peptide: Ac-LEGREKVRAQI[Aib][Aib]EG[Nle]STWS[Aib]RK-NH2
SMILES: CCCC[C@H](NC(=O)CNC(=O)[C@H](CCC(=O)O)NC(=O)C(C)(C)NC(=O)C(C)(C)NC(=O)[C@@H](NC(=O)[C@H](CCC(N)=O)NC(=O)[C@H](C)NC(=O)[C@H](CCCNC(=N)N)NC(=O)[C@@H](NC(=O)[C@H](CCCCN)NC(=O)[C@H](CCC(=O)O)NC(=O)[C@H](CCCNC(=N)N)NC(=O)CNC(=O)[C@H](CCC(=O)O)NC(=O)[C@H](CC(C)C)NC(C)=O)C(C)C)[C@@H](C)CC)C(=O)N[C@@H](CO)C(=O)N[C@H](C(=O)N[C@@H](Cc1c[nH]c2ccccc12)C(=O)N[C@@H](CO)C(=O)NC(C)(C)C(=O)N[C@@H](CCCNC(=N)N)C(=O)N[C@@H](CCCCN)C(N)=O)[C@@H](C)O
B2: SEQ ID NO: 40 (peptide)
peptide: Ac-LEGREKVRAQI[Aib][Aib]EGMSTWSKR-NH2
SMILES: CC[C@H](C)[C@H](NC(=O)[C@H](CCC(N)=O)NC(=O)[C@H](C)NC(=O)[C@H](CCCNC(=N)N)NC(=O)[C@@H](NC(=O)[C@H](CCCCN)NC(=O)[C@H](CCC(=O)O)NC(=O)[C@H](CCCNC(=N)N)NC(=O)CNC(=O)[C@H](CCC(=O)O)NC(=O)[C@H](CC(C)C)NC(C)=O)C(C)C)C(=O)NC(C)(C)C(=O)NC(C)(C)C(=O)N[C@@H](CCC(=O)O)C(=O)NCC(=O)N[C@@H](CCSC)C(=O)N[C@@H](CO)C(=O)N[C@H](C(=O)N[C@@H](Cc1c[nH]c2ccccc12)C(=O)N[C@@H](CO)C(=O)N[C@@H](CCCCN)C(=O)N[C@@H](CCCNC(=N)N)C(N)=O)[C@@H](C)O
B3: SEQ ID NO: 41 (peptide)
peptide: Ac-LEGREKVRAQI[Aib][Aib]EGMSTWS[Aib]R-NH2
SMILES: CC[C@H](C)[C@H](NC(=O)[C@H](CCC(N)=O)NC(=O)[C@H](C)NC(=O)[C@H](CCCNC(=N)N)NC(=O)[C@@H](NC(=O)[C@H](CCCCN)NC(=O)[C@H](CCC(=O)O)NC(=O)[C@H](CCCNC(=N)N)NC(=O)CNC(=O)[C@H](CCC(=O)O)NC(=O)[C@H](CC(C)C)NC(C)=O)C(C)C)C(=O)NC(C)(C)C(=O)NC(C)(C)C(=O)N[C@@H](CCC(=O)O)C(=O)NCC(=O)N[C@@H](CCSC)C(=O)N[C@@H](CO)C(=O)N[C@H](C(=O)N[C@@H](Cc1c[nH]c2ccccc12)C(=O)N[C@@H](CO)C(=O)NC(C)(C)C(=O)N[C@@H](CCCNC(=N)N)C(N)=O)[C@@H](C)O
B4: SEQ ID NO: 45 (peptide)
peptide: Ac-LEGREKVRAQI[Aib][Aib]EGMSTWS[Aib]RK-NH2
SMILES: CC[C@H](C)[C@H](NC(=O)[C@H](CCC(N)=O)NC(=O)[C@H](C)NC(=O)[C@H](CCCNC(=N)N)NC(=O)[C@@H](NC(=O)[C@H](CCCCN)NC(=O)[C@H](CCC(=O)O)NC(=O)[C@H](CCCNC(=N)N)NC(=O)CNC(=O)[C@H](CCC(=O)O)NC(=O)[C@H](CC(C)C)NC(C)=O)C(C)C)C(=O)NC(C)(C)C(=O)NC(C)(C)C(=O)N[C@@H](CCC(=O)O)C(=O)NCC(=O)N[C@@H](CCSC)C(=O)N[C@@H](CO)C(=O)N[C@H](C(=O)N[C@@H](Cc1c[nH]c2ccccc12)C(=O)N[C@@H](CO)C(=O)NC(C)(C)C(=O)N[C@@H](CCCNC(=N)N)C(=O)N[C@@H](CCCCN)C(N)=O)[C@@H](C)O
B5: SEQ ID NO: 38 (peptide)
peptide: Ac-LEGREKVRAQI[Aib][Aib]EGMSKWSKR-NH2
SMILES: CC[C@H](C)[C@H](NC(=O)[C@H](CCC(N)=O)NC(=O)[C@H](C)NC(=O)[C@H](CCCNC(=N)N)NC(=O)[C@@H](NC(=O)[C@H](CCCCN)NC(=O)[C@H](CCC(=O)O)NC(=O)[C@H](CCCNC(=N)N)NC(=O)CNC(=O)[C@H](CCC(=O)O)NC(=O)[C@H](CC(C)C)NC(C)=O)C(C)C)C(=O)NC(C)(C)C(=O)NC(C)(C)C(=O)N[C@@H](CCC(=O)O)C(=O)NCC(=O)N[C@@H](CCSC)C(=O)N[C@@H](CO)C(=O)N[C@@H](CCCCN)C(=O)N[C@@H](Cc1c[nH]c2ccccc12)C(=O)N[C@@H](CO)C(=O)N[C@@H](CCCCN)C(=O)N[C@@H](CCCNC(=N)N)C(N)=O
B6: SEQ ID NO: 43 (peptide)
peptide: Ac-LEGREKVRA[Aib]I[Aib][Aib]EGMSTWS[Aib]R-NH2
SMILES: CC[C@H](C)[C@H](NC(=O)C(C)(C)NC(=O)[C@H](C)NC(=O)[C@H](CCCNC(=N)N)NC(=O)[C@@H](NC(=O)[C@H](CCCCN)NC(=O)[C@H](CCC(=O)O)NC(=O)[C@H](CCCNC(=N)N)NC(=O)CNC(=O)[C@H](CCC(=O)O)NC(=O)[C@H](CC(C)C)NC(C)=O)C(C)C)C(=O)NC(C)(C)C(=O)NC(C)(C)C(=O)N[C@@H](CCC(=O)O)C(=O)NCC(=O)N[C@@H](CCSC)C(=O)N[C@@H](CO)C(=O)N[C@H](C(=O)N[C@@H](Cc1c[nH]c2ccccc12)C(=O)N[C@@H](CO)C(=O)NC(C)(C)C(=O)N[C@@H](CCCNC(=N)N)C(N)=O)[C@@H](C)O
B7: SEQ ID NO: 42 (peptide)
peptide: Ac-LEGREKVR[Aib]QI[Aib][Aib]EGMSTWS[Aib]R-NH2
SMILES: CC[C@H](C)[C@H](NC(=O)[C@H](CCC(N)=O)NC(=O)C(C)(C)NC(=O)[C@H](CCCNC(=N)N)NC(=O)[C@@H](NC(=O)[C@H](CCCCN)NC(=O)[C@H](CCC(=O)O)NC(=O)[C@H](CCCNC(=N)N)NC(=O)CNC(=O)[C@H](CCC(=O)O)NC(=O)[C@H](CC(C)C)NC(C)=O)C(C)C)C(=O)NC(C)(C)C(=O)NC(C)(C)C(=O)N[C@@H](CCC(=O)O)C(=O)NCC(=O)N[C@@H](CCSC)C(=O)N[C@@H](CO)C(=O)N[C@H](C(=O)N[C@@H](Cc1c[nH]c2ccccc12)C(=O)N[C@@H](CO)C(=O)NC(C)(C)C(=O)N[C@@H](CCCNC(=N)N)C(N)=O)[C@@H](C)O
B8: SEQ ID NO: 46 (peptide)
peptide: Ac-LEGREKVRAQI[Aib][Aib]EGMSKWS[Aib]R-NH2
SMILES: CC[C@H](C)[C@H](NC(=O)[C@H](CCC(N)=O)NC(=O)[C@H](C)NC(=O)[C@H](CCCNC(=N)N)NC(=O)[C@@H](NC(=O)[C@H](CCCCN)NC(=O)[C@H](CCC(=O)O)NC(=O)[C@H](CCCNC(=N)N)NC(=O)CNC(=O)[C@H](CCC(=O)O)NC(=O)[C@H](CC(C)C)NC(C)=O)C(C)C)C(=O)NC(C)(C)C(=O)NC(C)(C)C(=O)N[C@@H](CCC(=O)O)C(=O)NCC(=O)N[C@@H](CCSC)C(=O)N[C@@H](CO)C(=O)N[C@@H](CCCCN)C(=O)N[C@@H](Cc1c[nH]c2ccccc12)C(=O)N[C@@H](CO)C(=O)NC(C)(C)C(=O)N[C@@H](CCCNC(=N)N)C(N)=O
B9: SEQ ID NO: 47 (peptide)
peptide: Ac-LEGREKVRAK(Ac)I[Aib][Aib]EG[Nle]STWS[Aib]RK-NH2
SMILES: CCCC[C@H](NC(=O)CNC(=O)[C@H](CCC(=O)O)NC(=O)C(C)(C)NC(=O)C(C)(C)NC(=O)[C@@H](NC(=O)[C@H](CCCCNC(C)=O)NC(=O)[C@H](C)NC(=O)[C@H](CCCNC(=N)N)NC(=O)[C@@H](NC(=O)[C@H](CCCCN)NC(=O)[C@H](CCC(=O)O)NC(=O)[C@H](CCCNC(=N)N)NC(=O)CNC(=O)[C@H](CCC(=O)O)NC(=O)[C@H](CC(C)C)NC(C)=O)C(C)C)[C@@H](C)CC)C(=O)N[C@@H](CO)C(=O)N[C@H](C(=O)N[C@@H](Cc1c[nH]c2ccccc12)C(=O)N[C@@H](CO)C(=O)NC(C)(C)C(=O)N[C@@H](CCCNC(=N)N)C(=O)N[C@@H](CCCCN)C(N)=O)[C@@H](C)O
B10: SEQ ID NO: 37 (peptide)
peptide: Ac-LEGREKVRAQI[Aib][Aib]EG[Nle]ST[1Nal]SKR-NH2
SMILES: CCCC[C@H](NC(=O)CNC(=O)[C@H](CCC(=O)O)NC(=O)C(C)(C)NC(=O)C(C)(C)NC(=O)[C@@H](NC(=O)[C@H](CCC(N)=O)NC(=O)[C@H](C)NC(=O)[C@H](CCCNC(=N)N)NC(=O)[C@@H](NC(=O)[C@H](CCCCN)NC(=O)[C@H](CCC(=O)O)NC(=O)[C@H](CCCNC(=N)N)NC(=O)CNC(=O)[C@H](CCC(=O)O)NC(=O)[C@H](CC(C)C)NC(C)=O)C(C)C)[C@@H](C)CC)C(=O)N[C@@H](CO)C(=O)N[C@H](C(=O)N[C@@H](Cc1cccc2ccccc12)C(=O)N[C@@H](CO)C(=O)N[C@@H](CCCCN)C(=O)N[C@@H](CCCNC(=N)N)C(N)=O)[C@@H](C)O

This test has as its target T1, RXFP1 receptor. Briefly: cell-based or functional assay.
As for B1, the “cAMP assay in OVCAR 5 cells EC50” value was 82 nM and the “cAMP assay in OVCAR 5 cells Emax” value came to 101%.
Turning to B2, the “cAMP assay in OVCAR 5 cells EC50” value is 31.9 nM and the “cAMP assay in OVCAR 5 cells Emax” value stood at 103%.
B3: the “cAMP assay in OVCAR 5 cells EC50” value amounted to 45 nM and the “cAMP assay in OVCAR 5 cells Emax” value came out at 106%.
With B4, the “cAMP assay in OVCAR 5 cells EC50” value turned out to be 126 nM and the “cAMP assay in OVCAR 5 cells Emax” value was determined as 98%.
Taken in the same sequence, the figures for B5 were 10.7 nM and 102%.
On the same counts, the results for B6 are 190 nM and 104%.
For B7, the “cAMP assay in OVCAR 5 cells EC50” value stood at 251 nM and the “cAMP assay in OVCAR 5 cells Emax” value came to 104%.
As for B8, the “cAMP assay in OVCAR 5 cells EC50” value is 26.7 nM and the “cAMP assay in OVCAR 5 cells Emax” value is 82%.
For the molecule B9, the “cAMP assay in OVCAR 5 cells EC50” value came out at 117 nM and the “cAMP assay in OVCAR 5 cells Emax” value is 94%.
For B10, the “cAMP assay in OVCAR 5 cells EC50” value came to 52.4 nM and the “cAMP assay in OVCAR 5 cells Emax” value amounted to 104%.
